Target: RNF111 RING (Homo sapiens), Q6ZNA4
Sequence (Q6ZNA4 939-986): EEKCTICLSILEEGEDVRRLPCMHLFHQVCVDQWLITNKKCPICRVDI

Kd: 1000 nM
B1: UBXN7 UAS, O94888 (protein)
chain: IDKKLTTLADLFRPPIDLMHKGSFETAKECGQMQNKWLMINIQNVQDFACQCLNRDVWSNEAVKNIIREHFIFWQVYHDSEEGQRYIQFYKLGDFPYVSILDPRTGQKLVEWHQLDVSSFLDQVTGFLGE

Reference: paper PMC10080908
